1 molecule from patent US20220056091A1 (BRIGHT PEAK THERAPEUTICS, published 2022) can be followed below.

Holding throughout (assay): cell-based or functional assay
In test [1] the target is T1, Modified IL-18 polypeptide of SEQ ID NO: 11 (E06K, K53A, S55A, Y01G) (human, UniProt Q14116 38-193).
T1 chain: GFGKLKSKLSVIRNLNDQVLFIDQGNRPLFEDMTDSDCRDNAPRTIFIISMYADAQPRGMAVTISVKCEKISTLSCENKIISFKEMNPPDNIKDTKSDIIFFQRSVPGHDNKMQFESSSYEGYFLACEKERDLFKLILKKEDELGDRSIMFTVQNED

In test [2] the target is T2, Modified IL-18 polypeptide of SEQ ID NO: 22 (E06K, K53A, C38S, C68S, C76S, C127S, K70C) (human, UniProt Q14116 37-193).
T2 chain: T1 chain with G1Y, C38S, A55S, C68S, K70C, C76S, C127S

Test [3] addresses Modified IL-18 polypeptide of SEQ ID NO: 6 (E06K) (human, UniProt Q14116 37-193).
Test [4] has as its target Modified IL-18 polypeptide of SEQ ID NO: 8 (E06K, S55A) (human, UniProt Q14116 37-193).
Test [5] addresses T3, Modified IL-18 polypeptide of SEQ ID NO: 10 (E06K, K53A, S55A, T63A) (human, UniProt Q14116 37-193).
T3 chain: T1 chain with G1Y, T63A

The target in test [6] is Modified IL-18 polypeptide of SEQ ID NO: 7 (E06K, K53A) (human, UniProt Q14116 37-193).
Test [7] addresses Modified IL-18 polypeptide of SEQ ID NO: 20 (E06K, T63A) (human, UniProt Q14116 37-193).

Positions count from the first letter of the chain named.

B1: Fc fused human IL-18BP isoform a (IL-18BPa) (Fc fusion, UniProt O95998 31-194, looked up, not shown: a dimerising Fc or GST)
chain: TPVSQTTTAATASVRSTKDPCPSQPPVFPAAKQCPALEVTWPEVEVPLNGTLSLSCVACSRFPNFSILYWLGNGSFIEHLPGRLWEGSTSRERGSTGTQLCKALVLEQLTPALHSTNFSCVLVDPEQVVQRHVVLAQLWAGLRATLPPTQEALPSSHSSPQQQG
B1: the “IC50 (nM), IL-18BPa inhibition of IFNγ release by NK-92 cells (1 nM IL-18 analyte)” value is 27.8 nM in test [1]; 23.5 nM in test [2]; 7.79 nM in test [3]; 15 nM in test [4]; 1060 nM in test [5]; > 703 nM in test [6]. For the same molecule, the “IC50 (nM), IL-18BPa inhibition of IFNγ release by NK-92 cells (1 nM IL-18 analyte)” value in test [7] stood at 47.1 nM.
